Reference: the supplement of paper PMC9233669
Variants at the floor of the assay were thinned out.

How the values were obtained:
biotinyl-Trp-oxazolone = test: self-aminoacylation, catalytic enhancement (BWO) (fold over background); higher = more active; k-Seq, kA / k0A0; sequences stand for … in GGGAAUGGAUCCACAUCUACGAAUUC…UUCACUGCAGACUUGACGAAGCUG
Outline: (§1)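 Each biotinyl-aminoacyl-oxazolone, at 2–1250 μM, was incubated with mutagenized RNA pools (0.43 μM) carrying a 21-nt variable region. The 50 μL reactions contained HEPES/NaCl/KCl/MgCl2/CaCl2 buffer with 5% acetonitrile at pH 6.9–7.0 and ran for 90 minutes at room temperature. After streptavidin capture, RNA was measured by qPCR in triplicate and by Illumina sequencing, and catalytic enhancement was calculated as median kA over the uncatalyzed rate from a pseudo-first-order fit of per-sequence fraction reacted.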

biotinyl-Phe-oxazolone = test: self-aminoacylation, catalytic enhancement (BFO) (fold over background); higher = more active; k-Seq, kA / k0A0; sequences stand for … in GGGAAUGGAUCCACAUCUACGAAUUC…UUCACUGCAGACUUGACGAAGCUG
Outline: as §1

| Sequence | self-aminoacylation (biotinyl-Trp-oxazolone) | self-aminoacylation (biotinyl-Phe-oxazolone) |
| --- | --- | --- |
| AAGUAUGCUAAUAGUCGUAAG [Fam3.1 aminoacylation ribozyme variant] | 8.96 | 33.1 |
| AAGUCGGCUAAUAGUCGCAAG [Fam3.1 aminoacylation ribozyme variant] | 4.2 | 9.73 |
| AAGUGUGCUAAUAGUCGGAAG [Fam3.1 aminoacylation ribozyme variant] | 3.96 | 11 |
| AAGUUCGCUAAUAGUCGUAAG [Fam3.1 aminoacylation ribozyme variant] | 4.33 | 13.7 |
| AAGUUGGCUAAUAGUCGCAAA [Fam3.1 aminoacylation ribozyme variant] | 2.03 | 2.83 |
| AAGUUUGAUUAUAGUCGCAAG [Fam3.1 aminoacylation ribozyme variant] | 2.07 | 2.29 |
| AAGUUUGCUAAUAGUCGCGAA [Fam3.1 aminoacylation ribozyme variant] | 3.37 | 6.39 |
| AAGUUUGCUCAUAGUCGUAAG [Fam3.1 aminoacylation ribozyme variant] | 3.67 | 14.6 |
| ACACACUUCAAGUAAUCGGUC [Fam1B.1 aminoacylation ribozyme variant] | 6 | 7.88 |
| ACAUACUUCAAGCAAUCGGUC [Fam1B.1 aminoacylation ribozyme variant] | 5.65 | 10.3 |
| AGGUAUGCUAAUAGUCGCAAG [Fam3.1 aminoacylation ribozyme variant] | 3.41 | 9.64 |
| AUAAUUCAAACAAUCGGUCUG [Fam1A.1 aminoacylation ribozyme variant] | 2.97 | 4.88 |
| AUUACCCUGGCCGUCGAGUGA [Fam2.1 aminoacylation ribozyme variant] | 2.4 | 2.1 |
| AUUCACCUAGGUUAUCGGGUU [Fam2.2 aminoacylation ribozyme variant] | 2.04 | 5.07 |
| CAAAACUUCAAGCAAUCGGUC [Fam1B.1 aminoacylation ribozyme variant] | 10.6 | 15.2 |
| CCAAACUUCAAGGAAUCGGUC [Fam1B.1 aminoacylation ribozyme variant] | 5.42 | 5.98 |
| CCAAUCUUCAAGCAAUCGGUC [Fam1B.1 aminoacylation ribozyme variant] | 10.7 | 18.1 |
| CCACAAUUCAAUCAAUCGGUC [Fam1B.1 aminoacylation ribozyme variant] | 5.08 | 10.8 |
| CCACACUCCAAUCAAUCGGUC [Fam1B.1 aminoacylation ribozyme variant] | 3.48 | 5.95 |
| CCACACUUCAAAAAAUCGGUC [Fam1B.1 aminoacylation ribozyme variant] | 14.5 | 18.2 |
| CCACACUUCAACAAAUCGGUC [Fam1B.1 aminoacylation ribozyme variant] | 7.95 | 11.5 |
| CCACACUUCAAGGAAUCGGUC [Fam1B.1 aminoacylation ribozyme variant] | 6.13 | 8.21 |
| CCACACUUGAAGCAUUCGGUC [Fam1B.1 aminoacylation ribozyme variant] | 2.09 | 3.66 |
| CCACAGUUCAAGCAAUCGGUC [Fam1B.1 aminoacylation ribozyme variant] | 3.69 | 5.12 |

| Sequence | self-aminoacylation (biotinyl-Trp-oxazolone) | self-aminoacylation (biotinyl-Phe-oxazolone) |
| --- | --- | --- |
| CCACCUCAAACAAUCGGUCUG [Fam1A.1 aminoacylation ribozyme variant] | 4.25 | 4.25 |
| CCACUCUUCAACCAAUCGGUC [Fam1B.1 aminoacylation ribozyme variant] | 27 | 45.7 |
| CCACUCUUCAAGCAAUCAGUC [Fam1B.1 aminoacylation ribozyme variant] | 2.76 | 8.2 |
| CCCUACUUCAAGCAAUCGGUC [Fam1B.1 aminoacylation ribozyme variant] | 33.8 | 73.5 |
| CGACCUCAAACAAUCGGUCUG [Fam1A.1 aminoacylation ribozyme variant] | 4.64 | 3.54 |
| CGACUUCAAAUAAUCGGUCUG [Fam1A.1 aminoacylation ribozyme variant] | 14.6 | 16.2 |
| CGAGACUUCAAGCAAUCGGUC [Fam1B.1 aminoacylation ribozyme variant] | 4.16 | 5.77 |
| CUACACUUCAAGAAAUCGGUC [Fam1B.1 aminoacylation ribozyme variant] | 5.31 | 8.72 |
| CUACCUCCAACAAUCGGUCUG [Fam1A.1 aminoacylation ribozyme variant] | 3.94 | 4.71 |
| CUACUUCAAACAAUCGGGCUG [Fam1A.1 aminoacylation ribozyme variant] | 9.43 | 13.2 |
| CUACUUCAAACAAUCGGUCGG [Fam1A.1 aminoacylation ribozyme variant] | 17.3 | 27.4 |
| CUACUUCAAACAAUCGGUCUA [Fam1A.1 aminoacylation ribozyme variant] | 10 | 24.5 |
| CUACUUCAAAUAAUCGGUCUC [Fam1A.1 aminoacylation ribozyme variant] | 7.99 | 15.6 |
| CUACUUCAACCAAUCGGUCAG [Fam1A.1 aminoacylation ribozyme variant] | 3.33 | 6.18 |
| CUACUUCAACCAAUCGGUCUA [Fam1A.1 aminoacylation ribozyme variant] | 7 | 11.9 |
| CUACUUCAAGCAAUCGGUCCG [Fam1A.1 aminoacylation ribozyme variant] | 3.02 | 3.44 |
| CUACUUCAAGCAAUCGGUCUA [Fam1A.1 aminoacylation ribozyme variant] | 4.06 | 7.64 |
| CUACUUCAAGCAAUCGGUCUC [Fam1A.1 aminoacylation ribozyme variant] | 6.61 | 11.4 |
| CUACUUCAAUCAAUCGGACUG [Fam1A.1 aminoacylation ribozyme variant] | 4.18 | 8.24 |
| CUACUUCAAUCAAUCGGUCAG [Fam1A.1 aminoacylation ribozyme variant] | 3.51 | 7.4 |
| CUACUUCAAUCAAUCGGUCCG [Fam1A.1 aminoacylation ribozyme variant] | 4.75 | 6.48 |
| CUACUUCAAUCAAUCGGUCUC [Fam1A.1 aminoacylation ribozyme variant] | 14.9 | 25.9 |
| CUAGUUCAAACAAUCAGUCUG [Fam1A.1 aminoacylation ribozyme variant] | 2.15 | 5.02 |
